Results reported in the supplement of paper PMC10126150.
± gives the standard deviation of the averaged measurements.

Tested on: ATP
Experiment: switch fluorescence ratio, 500 uM ATP over buffer (Cy3 cluster intensity, sum of 5 cycles each) (fold (ratio)); higher = stronger signal-on switching upon ATP binding; sequences stand for … in TCGTCGGCAGCGTCAGATGTGTATAAGAGACAGTTTTTTTTTTTTTTTTTTTTTTTTT…TC
Conditions: aptamer strand: ATP DNA aptamer (quencher-CACCTGGGGGAGTATTGCGGAGGAAGG + anchor), 100 nM annealed; ATP concentration: 500 uM
Procedure, shortened: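 Switching-strand clusters labelled with Cy3 on a modified Illumina MiSeq flow-cell were annealed to 100 nM quencher-labelled ATP aptamer, imaged in selection buffer, and re-imaged after 15 min with 500 uM ATP at 22 °C. This was done over five cycles with NaOH stripping and re-annealing in between. The fluorescence ratio is summed target-cycle over summed buffer-cycle Cy3 intensity per cluster, averaged per switch-domain sequence, excluding clusters outside 100-1000 RFU.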
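Also: ATP exposure 15 min at 22 °C before imaging.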

| Sequence | switch fluorescence ratio |
| --- | --- |
| ATTATAGTCG | 1.01 ± 0.036 |
| TCGCAAAATT | 2.15 ± 1.3 |
| TAGGATTATA | 0.964 ± 0.021 |
| GATAGGATGG | 0.9842 ± 0.0027 |
| AAGCGGAGAT | 1.02 ± 0.0065 |
| AGGAGGGGG | 0.989 ± 0.049 |
| GACAATAAGT | 1.04 ± 0.012 |
| TTTTCCTCCC | 1.28 ± 0.24 |
| TCAAGAAATC | 0.983 ± 0.091 |
| AAGGGCGTGG | 0.982 ± 0.02 |
| GGAAATGTTG | 0.991 ± 0.041 |
| GGTAGACTTT | 0.967 ± 0.017 |
| GCGGGTCGGA | 1.02 ± 0.039 |
| TGAAGCCTAC | 2.57 ± 0.28 |
| TCCGAGGGAT | 2.25 ± 1.3 |
| ATAGCATACG | 1.28 ± 0.047 |
| AGTCGTGGGC | 0.98 ± 0.041 |
| ACTACGTGGG | 1.0708 ± 0.00037 |
| TGCCATAGG | 1.008 ± 0.0032 |
| GCGTATCTTA | 0.968 ± 0.014 |
| TTCGTCGGTA | 1.09 ± 0.15 |
| GCTTAATCAG | 0.988 ± 0.022 |
| AAACAGGAGT | 1.008 ± 0.0037 |
| TATATATTAA | 1.001 ± 0.0023 |
| GAGTATCTAG | 0.986 ± 0.038 |

| Sequence | switch fluorescence ratio |
| --- | --- |
| TTACAGGGGA | 1.01 ± 0.044 |
| GCTGCTAAGG | 0.987 ± 0.056 |
| GCAGTCACAG | 1.03 ± 0.029 |
| AATTCCTCAT | 1.04 ± 0.024 |
| TTTGAAAATG | 1.01 ± 0.035 |
| TTGTGGCCGT | 1.039 ± 0.0035 |
| ATCATACTTG | 1.03 ± 0.029 |
| ATTTGATCGA | 1.02 ± 0.075 |
| CCATTGTGAC | 1.06 ± 0.018 |
| TACTCTCGGT | 1.035 ± 0.0057 |
| TTGGGGATCG | 0.983 ± 0.056 |
| AGGAGGATGT | 0.98 ± 0.01 |
| GGTTTTTTAC | 1 ± 0.062 |
| ACTAGAAGAT | 0.9829 ± 0.0038 |
| ACTTAATGGG | 1.034 ± 0.0014 |
| ATGGTGACGG | 0.9765 ± 0.0034 |
| AGATTGTATG | 1.01 ± 0.039 |
| TTTTCCAAAG | 1.01 ± 0.055 |
| ACCTGCAATG | 2.43 ± 0.2 |
| GAACTTGGG | 1.01 ± 0.045 |
| TGGGTGATGT | 0.996 ± 0.066 |
| GAGTCATGCG | 0.911 ± 0.093 |
| ATCGTATGGT | 1 ± 0.023 |
| GAGAAATGTG | 1.03 ± 0.011 |
| CAAGTGCTTG | 1.03 ± 0.014 |

| Sequence | switch fluorescence ratio |
| --- | --- |
| GTTAATAGAA | 0.984 ± 0.035 |
| AGAAGTCGTG | 1.02 ± 0.012 |
| TTTATGTAGG | 0.9887 ± 0.0044 |
| GGGCTACTTG | 0.9881 ± 0.0021 |
| ATTTTTTCGC | 0.995 ± 0.015 |
| AGTTAGTGAC | 1.02 ± 0.024 |
| ACCAAACCGG | 1.039 ± 0.0079 |
| CCTGCGTTTT | 1.75 ± 0.32 |
| CGTGCACATT | 0.983 ± 0.012 |
| GGTGGACTTG | 1 ± 0.041 |
| TTGGGGTTAT | 0.975 ± 0.032 |
| CGCTAATGCG | 1.04 ± 0.059 |
| CATTAGAGGT | 0.995 ± 0.014 |
| AGCAATCGTT | 1.54 ± 0.071 |
| GTGGCTTTGT | 1.02 ± 0.029 |
| CTTTTTATGA | 1.01 ± 0.027 |
| GCGGCGGGGA | 1.01 ± 0.039 |
| TTGGGCGAGG | 1.025 ± 0.0075 |
| AAGCGGGTGG | 1.05 ± 0.028 |
| TATTGCCTGT | 0.974 ± 0.019 |
| CGTTGTTCGC | 1.02 ± 0.028 |
| TTAAAAGTGT | 0.999 ± 0.026 |
| TGAGGGGTAG | 0.988 ± 0.05 |
| GGGGGTCAGC | 1 ± 0.025 |
| GTTCTTGTGT | 1.01 ± 0.023 |

| Sequence | switch fluorescence ratio |
| --- | --- |
| GATTGATGTG | 0.995 ± 0.037 |
| CCCGGTTTTA | 1.06 ± 0.12 |
| TTTTCCCTAT | 1.41 ± 0.71 |
| AAGTGGGTAT | 1.16 ± 0.23 |
| GTTTTATGG | 0.982 ± 0.019 |
| TAGATCGAAC | 1.02 ± 0.024 |
| AATGGCGGCA | 1.06 ± 0.078 |
| ATTGATGGGG | 0.976 ± 0.042 |
| GGTTTGCGCT | 1.004 ± 0.0076 |
| TACCTGGTTT | 1 ± 0.03 |
| CAGGTCATTA | 0.9784 ± 0.0076 |
| TGTGGGTGGT | 1.01 ± 0.018 |
| ATAGATATAG | 1.027 ± 0.0096 |
| CACCTTACGT | 1.45 ± 0.079 |
| GCGGGTGGCT | 1.03 ± 0.019 |
| CTCATCGGGC | 1.06 ± 0.032 |
| CGAGACTTAT | 0.996 ± 0.013 |
| TGAAAATAG | 0.992 ± 0.018 |
| AGTTTTGTTG | 0.989 ± 0.036 |
| TCAAAGGGGT | 1.052 ± 0.0047 |
| GTAGAAGGGA | 1.01 ± 0.025 |
| TTATGTGATA | 0.95571 ± 0.00088 |
| CACTTTGGGG | 0.971 ± 0.0062 |
| GTTGGGGTTC | 0.982 ± 0.027 |
| CCTGGGAGGA | 1.012 ± 0.0014 |
